# Experimental data published in PMC9482650, “Quantitative fragmentomics allow affinity mapping of interactomes” (Nature Communications, 2022).
# Biological target: FRMPD2_3, Q68DX3
# Assay: holdup assay
# Design: key: below the threshold = too weak to quantify, mostly under pKd 3.1 to 4
# Details: plain residues with an end cap or a label only (N-terminal biotin on a linker: ado-ado)
# Sequence of FRMPD2_3, Q68DX3 (Q68DX3 1073-1166): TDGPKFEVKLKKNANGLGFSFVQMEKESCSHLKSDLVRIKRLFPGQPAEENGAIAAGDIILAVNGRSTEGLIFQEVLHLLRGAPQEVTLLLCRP
row,Binder,pKd
1,"QGPVETESVV [SLC45A4, Q5BKX6]",3.54

# Biological target: T1, DLG3_1, Q92796
# T1 sequence (Q92796 125-227, limits assumed, looked up): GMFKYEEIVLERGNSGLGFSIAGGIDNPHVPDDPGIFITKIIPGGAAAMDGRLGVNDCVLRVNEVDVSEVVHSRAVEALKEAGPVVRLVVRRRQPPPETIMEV
# Assay: holdup assay
# Design: key: below the threshold = too weak to quantify, mostly under pKd 3.1 to 4
# Details: plain residues with an end cap or a label only (N-terminal biotin on a linker: ado-ado)
row,Binder,pKd
1,"QGPVETESVV [SLC45A4, Q5BKX6]",3.88

# Biological target: NOS1, P29475
# Sequence (P29475 9-101): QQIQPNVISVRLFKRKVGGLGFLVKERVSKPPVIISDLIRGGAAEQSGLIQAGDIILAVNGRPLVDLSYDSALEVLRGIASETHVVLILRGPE
# Assay: holdup assay
# Design: key: below the threshold = too weak to quantify, mostly under pKd 3.1 to 4
# Details: plain residues with an end cap or a label only (N-terminal biotin on a linker: ado-ado)
row,Binder,pKd
1,"QGPVETESVV [SLC45A4, Q5BKX6]",3.85

# Biological target: T2, SYNJ2BP, P57105
# T2 sequence (P57105 8-110, limits assumed, looked up): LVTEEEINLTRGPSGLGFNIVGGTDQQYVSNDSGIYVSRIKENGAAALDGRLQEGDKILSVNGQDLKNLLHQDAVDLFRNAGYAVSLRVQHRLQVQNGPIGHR
# Assay: holdup assay
# Design: key: below the threshold = too weak to quantify, mostly under pKd 3.1 to 4
# Details: plain residues with an end cap or a label only (N-terminal biotin on a linker: ado-ado)
row,Binder,pKd
1,"QGPVETESVV [SLC45A4, Q5BKX6]",4.49

# Biological target: T3, GRIP1_5, Q9Y3R0
# T3 sequence (Q9Y3R0 568-668, limits assumed, looked up): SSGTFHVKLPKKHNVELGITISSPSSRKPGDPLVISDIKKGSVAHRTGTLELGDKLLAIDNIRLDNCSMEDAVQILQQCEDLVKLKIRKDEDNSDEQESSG
# Assay: holdup assay
# Design: key: below the threshold = too weak to quantify, mostly under pKd 3.1 to 4
# Details: plain residues with an end cap or a label only (N-terminal biotin on a linker: ado-ado)
row,Binder,pKd
1,"QGPVETESVV [SLC45A4, Q5BKX6]",below the threshold

# Biological target: PDLIM1, O00151
# Sequence (O00151 1-87): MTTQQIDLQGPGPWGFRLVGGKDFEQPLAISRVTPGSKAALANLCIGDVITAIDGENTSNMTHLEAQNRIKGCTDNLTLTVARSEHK
# Assay: holdup assay
# Design: key: below the threshold = too weak to quantify, mostly under pKd 3.1 to 4
# Details: plain residues with an end cap or a label only (N-terminal biotin on a linker: ado-ado)
row,Binder,pKd
1,"QGPVETESVV [SLC45A4, Q5BKX6]",below the threshold

# Biological target: HTRA1, Q92743
# Sequence (Q92743 360-477): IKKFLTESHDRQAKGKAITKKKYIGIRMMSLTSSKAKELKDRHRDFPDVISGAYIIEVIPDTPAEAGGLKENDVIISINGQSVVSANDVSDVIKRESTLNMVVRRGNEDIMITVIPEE
# Assay: holdup assay
# Design: key: below the threshold = too weak to quantify, mostly under pKd 3.1 to 4
# Details: plain residues with an end cap or a label only (N-terminal biotin on a linker: ado-ado)
row,Binder,pKd
1,"QGPVETESVV [SLC45A4, Q5BKX6]",4.55

# Biological target: AHNAK1, Q09666
# Sequence (Q09666 4-100): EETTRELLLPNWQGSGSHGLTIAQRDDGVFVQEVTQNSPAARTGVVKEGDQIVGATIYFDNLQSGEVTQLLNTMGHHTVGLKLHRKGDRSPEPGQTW
# Assay: holdup assay
# Design: key: below the threshold = too weak to quantify, mostly under pKd 3.1 to 4
# Details: plain residues with an end cap or a label only (N-terminal biotin on a linker: ado-ado)
row,Binder,pKd
1,"QGPVETESVV [SLC45A4, Q5BKX6]",below the threshold

# Biological target: T4, NHERF3_1, Q5T2W1
# T4 sequence (Q5T2W1 4-100, limits assumed, looked up): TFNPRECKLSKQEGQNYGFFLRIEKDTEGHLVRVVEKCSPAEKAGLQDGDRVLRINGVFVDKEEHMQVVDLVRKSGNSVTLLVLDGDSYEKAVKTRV
# Assay: holdup assay
# Design: key: below the threshold = too weak to quantify, mostly under pKd 3.1 to 4
# Details: plain residues with an end cap or a label only (N-terminal biotin on a linker: ado-ado)
row,Binder,pKd
1,"QGPVETESVV [SLC45A4, Q5BKX6]",4.01

# Biological target: MAGI1_1, Q96QZ7
# Sequence (Q96QZ7 1-106): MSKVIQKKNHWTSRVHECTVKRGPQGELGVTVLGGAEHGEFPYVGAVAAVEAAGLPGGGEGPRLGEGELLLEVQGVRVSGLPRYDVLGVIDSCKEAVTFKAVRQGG
# Assay: holdup assay
# Design: key: below the threshold = too weak to quantify, mostly under pKd 3.1 to 4
# Details: plain residues with an end cap or a label only (N-terminal biotin on a linker: ado-ado)
row,Binder,pKd
1,"QGPVETESVV [SLC45A4, Q5BKX6]",below the threshold

# Biological target: PICK1, Q9NRD5
# Sequence (Q9NRD5 17-115): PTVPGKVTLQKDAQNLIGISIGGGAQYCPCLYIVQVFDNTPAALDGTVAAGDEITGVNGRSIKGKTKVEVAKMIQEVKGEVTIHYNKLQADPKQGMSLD
# Assay: holdup assay
# Design: key: below the threshold = too weak to quantify, mostly under pKd 3.1 to 4
# Details: plain residues with an end cap or a label only (N-terminal biotin on a linker: ado-ado)
row,Binder,pKd
1,"QGPVETESVV [SLC45A4, Q5BKX6]",below the threshold

# Biological target: GRIP2_5, Q9C0E4
# Sequence (Q9C0E4 544-642): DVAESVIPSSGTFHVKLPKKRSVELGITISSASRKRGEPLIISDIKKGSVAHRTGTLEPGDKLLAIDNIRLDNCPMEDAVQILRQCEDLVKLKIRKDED
# Assay: holdup assay
# Design: key: below the threshold = too weak to quantify, mostly under pKd 3.1 to 4
# Details: plain residues with an end cap or a label only (N-terminal biotin on a linker: ado-ado)
row,Binder,pKd
1,"QGPVETESVV [SLC45A4, Q5BKX6]",below the threshold

# Biological target: T5, TIAM2, Q8IVF5
# T5 sequence (Q8IVF5 885-986, limits assumed, looked up): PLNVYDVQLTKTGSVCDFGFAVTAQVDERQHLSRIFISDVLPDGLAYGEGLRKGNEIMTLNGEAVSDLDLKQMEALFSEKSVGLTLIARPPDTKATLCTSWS
# Assay: holdup assay
# Design: key: below the threshold = too weak to quantify, mostly under pKd 3.1 to 4
# Details: plain residues with an end cap or a label only (N-terminal biotin on a linker: ado-ado)
row,Binder,pKd
1,"QGPVETESVV [SLC45A4, Q5BKX6]",below the threshold

# Biological target: T6, APBA1_2, Q02410
# T6 sequence (Q02410 742-832, limits assumed, looked up): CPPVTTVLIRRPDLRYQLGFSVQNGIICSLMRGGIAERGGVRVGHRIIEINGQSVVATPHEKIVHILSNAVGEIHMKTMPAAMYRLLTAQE
# Assay: holdup assay
# Design: key: below the threshold = too weak to quantify, mostly under pKd 3.1 to 4
# Details: plain residues with an end cap or a label only (N-terminal biotin on a linker: ado-ado)
row,Binder,pKd
1,"QGPVETESVV [SLC45A4, Q5BKX6]",3.79

# Biological target: T7, RHPN1, Q8TCX5
# T7 sequence (Q8TCX5 508-602, limits assumed, looked up): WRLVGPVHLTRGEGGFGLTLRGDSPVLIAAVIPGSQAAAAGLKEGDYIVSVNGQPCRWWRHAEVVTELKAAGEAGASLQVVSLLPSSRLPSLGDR
# Assay: holdup assay
# Design: key: below the threshold = too weak to quantify, mostly under pKd 3.1 to 4
# Details: plain residues with an end cap or a label only (N-terminal biotin on a linker: ado-ado)
row,Binder,pKd
1,"QGPVETESVV [SLC45A4, Q5BKX6]",4.47

# Biological target: T8, GRIP1_3, Q9Y3R0
# T8 sequence (Q9Y3R0 247-346, limits assumed, looked up): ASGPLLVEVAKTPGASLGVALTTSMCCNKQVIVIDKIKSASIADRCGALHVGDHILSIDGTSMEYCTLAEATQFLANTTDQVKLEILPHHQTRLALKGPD
# Assay: holdup assay
# Design: key: below the threshold = too weak to quantify, mostly under pKd 3.1 to 4
# Details: plain residues with an end cap or a label only (N-terminal biotin on a linker: ado-ado)
row,Binder,pKd
1,"QGPVETESVV [SLC45A4, Q5BKX6]",below the threshold

# Biological target: SNX27, Q96L92
# Assay: holdup assay
# Design: key: below the threshold = too weak to quantify, mostly under pKd 3.1 to 4
# Details: plain residues with an end cap or a label only (N-terminal biotin on a linker: ado-ado)
row,Binder,pKd
1,"QGPVETESVV [SLC45A4, Q5BKX6]",5.73

# Biological target: GRID2IP_2, A4D2P6
# Sequence (A4D2P6 272-370): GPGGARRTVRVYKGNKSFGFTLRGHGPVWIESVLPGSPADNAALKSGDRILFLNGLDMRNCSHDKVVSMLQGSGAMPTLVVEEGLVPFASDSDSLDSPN
# Assay: holdup assay
# Design: key: below the threshold = too weak to quantify, mostly under pKd 3.1 to 4
# Details: plain residues with an end cap or a label only (N-terminal biotin on a linker: ado-ado)
row,Binder,pKd
1,"QGPVETESVV [SLC45A4, Q5BKX6]",3.55

# Biological target: T9, LNX2_2, Q8N448
# T9 sequence (Q8N448 334-432, limits assumed, looked up): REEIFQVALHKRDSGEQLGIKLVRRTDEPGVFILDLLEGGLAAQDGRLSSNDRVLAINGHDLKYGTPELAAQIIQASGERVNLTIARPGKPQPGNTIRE
# Assay: holdup assay
# Design: key: below the threshold = too weak to quantify, mostly under pKd 3.1 to 4
# Details: plain residues with an end cap or a label only (N-terminal biotin on a linker: ado-ado)
row,Binder,pKd
1,"QGPVETESVV [SLC45A4, Q5BKX6]",4.31

# Biological target: T10, MPP2, Q14168
# T10 sequence (Q14168 180-250, limits assumed, looked up): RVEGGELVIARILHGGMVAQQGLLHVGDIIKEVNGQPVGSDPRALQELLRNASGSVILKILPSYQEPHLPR
# Assay: holdup assay
# Design: key: below the threshold = too weak to quantify, mostly under pKd 3.1 to 4
# Details: plain residues with an end cap or a label only (N-terminal biotin on a linker: ado-ado)
row,Binder,pKd
1,"QGPVETESVV [SLC45A4, Q5BKX6]",below the threshold

# Biological target: T11, APBA1_1, Q02410
# T11 sequence (Q02410 651-752, limits assumed, looked up): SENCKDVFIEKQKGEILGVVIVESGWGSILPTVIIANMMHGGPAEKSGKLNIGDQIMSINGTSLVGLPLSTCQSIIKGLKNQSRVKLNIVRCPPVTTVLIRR
# Assay: holdup assay
# Design: key: below the threshold = too weak to quantify, mostly under pKd 3.1 to 4
# Details: plain residues with an end cap or a label only (N-terminal biotin on a linker: ado-ado)
row,Binder,pKd
1,"QGPVETESVV [SLC45A4, Q5BKX6]",below the threshold

# Biological target: GRIP2_4, Q9C0E4
# Sequence (Q9C0E4 446-548): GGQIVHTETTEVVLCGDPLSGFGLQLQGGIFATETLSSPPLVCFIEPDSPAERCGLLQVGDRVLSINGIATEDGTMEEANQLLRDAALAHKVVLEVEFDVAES
# Assay: holdup assay
# Design: key: below the threshold = too weak to quantify, mostly under pKd 3.1 to 4
# Details: plain residues with an end cap or a label only (N-terminal biotin on a linker: ado-ado)
row,Binder,pKd
1,"QGPVETESVV [SLC45A4, Q5BKX6]",below the threshold

# Biological target: T12, DLG3_3, Q92796
# T12 sequence (Q92796 374-475, limits assumed, looked up): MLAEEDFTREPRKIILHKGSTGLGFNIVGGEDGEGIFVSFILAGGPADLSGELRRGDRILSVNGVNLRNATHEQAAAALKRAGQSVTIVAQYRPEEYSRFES
# Assay: holdup assay
# Design: key: below the threshold = too weak to quantify, mostly under pKd 3.1 to 4
# Details: plain residues with an end cap or a label only (N-terminal biotin on a linker: ado-ado)
row,Binder,pKd
1,"QGPVETESVV [SLC45A4, Q5BKX6]",below the threshold

# Biological target: IL16_3, Q14005
# Sequence (Q14005 1107-1207): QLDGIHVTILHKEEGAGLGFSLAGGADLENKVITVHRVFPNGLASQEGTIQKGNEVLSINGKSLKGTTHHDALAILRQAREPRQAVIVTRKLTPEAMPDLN
# Assay: holdup assay
# Design: key: below the threshold = too weak to quantify, mostly under pKd 3.1 to 4
# Details: plain residues with an end cap or a label only (N-terminal biotin on a linker: ado-ado)
row,Binder,pKd
1,"QGPVETESVV [SLC45A4, Q5BKX6]",below the threshold

# Biological target: DLG4_1, P78352
# Sequence (P78352 62-152): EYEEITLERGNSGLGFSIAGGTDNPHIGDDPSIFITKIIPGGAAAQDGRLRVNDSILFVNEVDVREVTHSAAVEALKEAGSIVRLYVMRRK
# Assay: holdup assay
# Design: key: below the threshold = too weak to quantify, mostly under pKd 3.1 to 4
# Details: plain residues with an end cap or a label only (N-terminal biotin on a linker: ado-ado)
row,Binder,pKd
1,"QGPVETESVV [SLC45A4, Q5BKX6]",4.33

# Biological target: Inadl_8, Q8NI35
# Sequence (Q8NI35 1425-1530): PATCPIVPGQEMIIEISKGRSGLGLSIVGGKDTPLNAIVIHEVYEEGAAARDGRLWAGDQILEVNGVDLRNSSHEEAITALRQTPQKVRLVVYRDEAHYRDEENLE
# Assay: holdup assay
# Design: key: below the threshold = too weak to quantify, mostly under pKd 3.1 to 4
# Details: plain residues with an end cap or a label only (N-terminal biotin on a linker: ado-ado)
row,Binder,pKd
1,"QGPVETESVV [SLC45A4, Q5BKX6]",3.7
